The target of experiment [1] is T1, His-tagged PH domain of PDK1 (purified) (UniProt O15530 409-556, limits assumed).
T1 construct: domain: PH domain; Expressed in E. coli BL21 and purified on Ni2+-NTA-agarose; also called His-PH; His-tagged PDK1PH; not shown: His tag from vector pET32a
T1 sequence (looked up): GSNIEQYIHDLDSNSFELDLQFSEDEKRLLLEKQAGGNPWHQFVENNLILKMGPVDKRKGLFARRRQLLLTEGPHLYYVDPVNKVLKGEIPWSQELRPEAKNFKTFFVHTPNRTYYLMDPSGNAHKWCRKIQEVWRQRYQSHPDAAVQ
The experiment can be described thus: Far-western analysis and GST pull-down with purified proteins.

The target in experiment [2] is T2, Flag-PDK1 (UniProt O15530 1-556, limits assumed).
T2 construct: Expressed in HEK293T cells for co-immunoprecipitation; not shown: Flag tag
T2 sequence (looked up): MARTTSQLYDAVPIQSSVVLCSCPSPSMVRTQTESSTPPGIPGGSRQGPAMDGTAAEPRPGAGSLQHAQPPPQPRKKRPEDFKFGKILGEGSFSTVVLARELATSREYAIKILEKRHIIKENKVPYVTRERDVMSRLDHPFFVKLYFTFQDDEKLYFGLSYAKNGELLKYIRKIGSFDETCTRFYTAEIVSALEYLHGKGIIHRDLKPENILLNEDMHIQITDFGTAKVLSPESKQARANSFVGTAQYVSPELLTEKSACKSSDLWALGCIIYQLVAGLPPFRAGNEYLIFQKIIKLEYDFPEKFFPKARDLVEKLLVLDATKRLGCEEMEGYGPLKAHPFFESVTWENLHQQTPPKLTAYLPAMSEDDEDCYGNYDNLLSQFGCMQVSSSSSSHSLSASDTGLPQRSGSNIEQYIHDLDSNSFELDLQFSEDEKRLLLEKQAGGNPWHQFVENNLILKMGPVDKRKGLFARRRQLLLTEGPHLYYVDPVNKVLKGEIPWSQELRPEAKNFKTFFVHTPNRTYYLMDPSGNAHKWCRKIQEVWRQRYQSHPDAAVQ
The experiment can be described thus: co-immunoprecipitation of GFP-tagged truncated AMIGO2 with Flag-PDK1.

Experiment [3] has as its target T2, Flag-PDK1. The experiment can be described thus: co-immunoprecipitation of GFP-tagged deletion mutants with Flag-PDK1.

Where no end group is shown, it is not given here.

B1: GST-tagged AMIGO2 420-464 (other)
chain: TPCPCKCKTKRQKNMLHQSNAHSSILSPGPASDASADERKAGAGK
modifications: cysteine pairing not given here; also: GST tag of pGEX 4T1 (sequence not given here)
notes: Same forward primer and linker as GST-CD; not shown: glutathione S-transferase tag of vector pGEX 4T1
As for B1, in experiment [1], the binding result was “no binding”.

B2: AMIGO2^457aa (GFP-tagged AMIGO2 truncated after residue 457) (receptor)
chain: VCPTACICATDIVSCTNKNLSKVPGNLFRLIKRLDLSYNRIGLLDSEWIPVSFAKLNTLILRHNNITSISTGSFSTTPNLKCLDLSSNKLKTVKNAVFQELKVLEVLLLYNNHISYLDPSAFGGLSQLQKLYLSGNFLTQFPMDLYVGRFKLAELMFLDVSYNRIPSMPMHHINLVPGKQLRGIYLHGNPFVCDCSLYSLLVFWYRRHFSSVMDFKNDYTCRLWSDSRHSRQVLLLQDSFMNCSDSIINGSFRALGFIHEAQVGERLMVHCDSKTGNANTDFIWVGPDNRLLEPDKEMENFYVFHNGSLVIESPRFEDAGVYSCIAMNKQRLLNETVDVTINVSNFTVSRSHAHEAFNTAFTTLAACVASIVLVLLYLYLTPCPCKCKTKRQKNMLHQSNAHSSILSPGPASDASADE
notes: The range 1-457 is read from the name and from the reverse primer with its stop codon; also called 457aa construct; not shown: EGFP tag
As to B2, the binding result in experiment [2] is “no binding”.

B3: GST-tagged AMIGO2 420-454 (other)
chain: TPCPCKCKTKRQKNMLHQSNAHSSILSPGPASDAS
modifications: cysteine pairing not given here; also: GST tag of pGEX 4T1 (sequence not given here)
notes: as for B1
With B3, the binding result in experiment [1] is “no binding”.

B4: AMIGO2^ΔCD (GFP-tagged AMIGO2 with residues 420-522 deleted) (receptor)
chain: VCPTACICATDIVSCTNKNLSKVPGNLFRLIKRLDLSYNRIGLLDSEWIPVSFAKLNTLILRHNNITSISTGSFSTTPNLKCLDLSSNKLKTVKNAVFQELKVLEVLLLYNNHISYLDPSAFGGLSQLQKLYLSGNFLTQFPMDLYVGRFKLAELMFLDVSYNRIPSMPMHHINLVPGKQLRGIYLHGNPFVCDCSLYSLLVFWYRRHFSSVMDFKNDYTCRLWSDSRHSRQVLLLQDSFMNCSDSIINGSFRALGFIHEAQVGERLMVHCDSKTGNANTDFIWVGPDNRLLEPDKEMENFYVFHNGSLVIESPRFEDAGVYSCIAMNKQRLLNETVDVTINVSNFTVSRSHAHEAFNTAFTTLAACVASIVLVLLYLYL
notes: The range 1-419 is derived from it; also called AMIGO2 without cytosolic Domain; not shown: EGFP tag
With B4, the binding result in experiment [3] is listed as “no binding”.

Values taken from patent US20160376339A1 (CURACLE, published 2016).
